Data: PMC9428257

Target: T1, human APRIL (a proliferation-inducing ligand) (human), O75888
T1 chain: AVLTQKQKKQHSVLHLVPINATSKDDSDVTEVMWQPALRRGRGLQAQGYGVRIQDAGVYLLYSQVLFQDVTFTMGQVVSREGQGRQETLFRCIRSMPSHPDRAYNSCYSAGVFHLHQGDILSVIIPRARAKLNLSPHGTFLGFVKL
Assay: FACS
Conditions: domain or fragment; chains chain; remark: other sources report otherwise

B1: yeast-displayed wild-type sBCMA (human BCMA extracellular domain, Met1-Ala54), Q02223 1-54 (protein)
chain: MLQMAGQCSQNEYFDSLLHACIPCQLRCSSNTPPLTCQRYCNASVTNSVKGTNA
Kd: 25 pM
